Assay results from the DeepSol protein solubility set.

Assay: soluble on expression in E. coli; label from the status in PepcDB or PDB records

| Sequence | soluble on expression in E. coli |
| --- | --- |
| MDRRTFLKSASMKGTAIVTASAVGTEMLHAAESIGASDVASGKRNAPKAKRLPEDLQELVKDSSLLRKPDNLTVACYTFPNYHASALHDKIYGPGWTEYNLVRSARPWFQGHAQPRGPLLGEMDESKPGTWEKYNELCKQSGIDVLIWDWYWYNNEPCLHEALENGFLRASNRNDVKFACMWTNHPWYVLYPTLLPNGYKAYPPSFAPADGSLKECWQSLSYIISRYCHLENYWRIDDKPVVCIWDPNRLEKNIGVDGVKQLFAELTEFARKLGHKGLHFHSSGFYSPNSKEVGYNTAGSYNPFTWVADNYQPKNIELPDYGVAAADVAFKLWPKHHDDFAIPYLPSLSPGWDSTPRYIPPVSRPDQPNRDAWPNCVILDNENPASFKALVQSAFAYLNKHKDVPPILTIACFNEWTEGHYLLPDNRFGYGMLDALAEAVGKSDNHQIHGFFLEHHHHHH | not soluble |
| MNITKIISKTFDSRLKQIDLYASQASEIQHRVLSRLVNQAAQTEWGKKYDYASIRSYEDFRNRLPIQTYEEIKPYVERLRAGEQNLLWPSEIRWFAKSSGTTNDKSKFLPVSKEALEDIHYRGGKDAAALYFRINPDSHFFSGKGLILGGSHSPNLNSNHSLVGDLSAILIQNVNPLINFIRVPSKKIALMSEWETKIEAIANSTIPVNVTSLSGVPSWMLVLIKRILEKTGKQTLEEVWPNLEVFFHGGVAFTPYREQYKQVIHSKMMHYVETYNASEGYFGTQNDLSDPAMLLMIDYGIFYEFVPLEEVDKENPRAYCLEEVELNKNYAMVISTSCGLWRYMIGDTVKFTNKNPYKFVITGRTKHFINAFGEELIVDNAEKGLAKACAETGAQVCEYSAAPVFMDEHAKCRHQWLIEFAKMPDSVEKFAAILDATLKEVNSDYEAKRWKDIALQPLEVIVARPGLFHDWLARKGKLGGQHKVPRLSNTREYIESMLVLNNELEHHHHHH | not soluble |
| MAHHHHHHMDSDLSAEIARIEAELAQDAELRQQQQQLAPQQPPASLFGFGQTAPVQPQQQQQQQLFQTQPPQPQQQPSNPFNVNASPFMPTPQQPDYSQQQQQQQQPIGSAGQAAAQASAPTPIIHSFSKDTDSRSIFIGNLPRGTDGTPTTTPEELVQFFADCGNILNCTVLKDRATGEPKGTAYIEFADYTAMGKAIDTKNNANFKGSTIIVCVSTSPLFSLAGFFG | soluble |
| RSLTMTLEELMNAPAPASRWVLERDCAETGLDPADIRAEMLRRIGEMRSSVERGLQSDARSITGMVGWNAKGLWDAPDVLGAPLLKRVQAYAMAVNEENARMGRIVAAPTAGSAGTIPGALLGVADHLGLSDEQLVDPMILAAGVGKAISKRMFISGAAGGCQAE | not soluble |
| MAQNNENALPDITKSITLEAPIQKVWETVSTSEGIAKWFMPNDFQLKEGQEFHLQSPFGPSPCKVLAVQAPTELSFEWDTEGWVVTFQLEDLGEKTGFTLIHSGWKEPNEVIGKANEKSSVVRGKMDGGWTGIVNERLRKAVEE | not soluble |
| MSLESLAAKVVERLNRAESAAELRFCHDELARELRRCLAPEQMKQLAGDVVCVHEAILRRAFFLAERETMKRSVGIRPPAWCWYVMGSIGRCEPTIWTDQDHGILFNCPEEEEAACYEFIRHMAAVGVDMLHEAGYPYCSGYVMATNKRWAQSVRGWEQQLSSYLDSGWPNDIRFLLIAMDMRPLYGEAELAEKARKALFAAVAKRPPLLARMGEHVQFPPVPLGWLGNVQTERWGPYSGAVHMKQSGYVQLTNALKWLACFAHVPTAGTAERRRALEANGVLTAPLSDAVCEALSVYYSIRLKYSTEAGDGREYVLWRALERTEQKQLKQAMRTAKRLQRFVARRVANIHAEGHHHHHH | soluble |
| MSLTKYIFVTGGVVSSIGKGIVAASLGRLLKNRGLKVTIQKFDPYINIDPGTMSPYQHGEVYVTDDGAETDLDLGHYERFIDINLNKYSNVTTGKIYSEVLRKERKGEYLGATVQVIPHITDALKEKIKRAATTTDSDVIITEVGGTVGDIESLPFLEALRQMKADVGADNVMYIHTTLLPYLKAAGEMKTKPTQHSVKELRGLGIQPNMLVIRTEQPAGQGIKNKLAQFCDVAPEAVIESLDVDHLYQIPLNLQAQNMDQIVCDHLKLDVPVADMTEWSAMVDKVMNLKKKTKIALVGKYVELPDAYLSVVEALKHSGYVNDTAIDLNWINANEVTPETVTDLLGDADGIIVPGGFGHRGTEGKIEAIRYARENDVPMLGICLGMQLTCVEYARHVLNLEGANSAELDPDTKYPVIDIMRDQIDIEDMGGTLRLGLYPCKLKSGSKTASAYSNQEVVQRRHRHRYEFNNAFRQQFEEAGFVFSGVSPDNRLVEVVELSDKKFFVAAQYHPELQSRPNRPEELYTAFITAAVENSQAHEGHHHHHH | soluble |
| MSLGSVFRHIEGGMLFPQGSVTCIGAFDGLHLGHRALVRHALQRATALHLPTVALSFEPLPREYFASTTPPPRLTLTRAKIQGLHRFGADSVGLLRFDSRLASMSPQTFVERVLLGRLGVREVLIGPQFRFGHQRSGDIALLQRLGLEHGFTATEIPPLHLNNERISATKIRALLAAGDFAHAAELLGRPYMIGGRVVRGQQLGSTLGYPTANLRFPHPIALSGIYATWVHGIFEQPWPSVSSFGTRPTVAGVEPLLEVHLFDFHSDLYGRRIDVEFIAKLRDEETFPDLHTMTTQIHRDAQQARHILSEHRLRAEGHHHHHH | not soluble |
| MTQTFADQKRKTVETAEFTEDGRYKRKVRSFVLRTGRLSEFQRNMMNDNWGTLGLDYQTEPFDFAKIYGNDNPVVLEIGFGMGKSLVDMAFANPDKNYLGIEVHTPGVGACIAYAVEKGVTNLRVICHDATEILRDSIADGALGGLQLFFPDPWHKAKHHKRRIVQPHFVTQVIQKLGENGFIHMATDWENYAEQMLEVLSANTDLVNTSKNGDYIPRPDFRPLTKFEARGYKLGHGVWDLYFVKK | not soluble |
| MKPATFKEAVVLYEGMIVNQIKKLGIRKDYEEYYQCGLIGLWHAYERFDEKKGYFPAYAVVTVRGYILERLKKEFAVQERCVCVGEYEDIFHFEDVEIRVKDFMSVLDEKEKYIIFERFFVGKTMGEIALETEMTYYQVRWMYRQALEKMRDSVKG | not soluble |
| MGSDKIHHHHHHMKTEITLLKGETVMVEPKEFLKAGQAFHGHKCPAMPMGLRVGAAAMNKLGVERSKDGQLLDLVELGDGHCATCFADGIQMITGCTFGKGNIKKLHYGKWGVTLIDTQTGRAVRVTPKAEAMLANKKSEFFTEYRMKHIPASKVPAEVVEPLVEKVMNAPDDMLLNIGDVFDYEVPPKVESFSGFVCDICGEMVVEGYGRPLDDKKVCQPCYEKAQREH | not soluble |
| RQTDFTRPDGSRSTVALLQGNIDQTLKWREDQVIPTIQKYYEQVGKTTADIVILPETAIPVMRQNLPENILAKFAEQAQNNGSALAVGISQYTSDGNGYENAVINLTGYQENNQDGIPYYAKNHLVPFGEYKPLPFLTTPLYKMMDMPLSDFRKGGGKQSALLMKNQKIAFNICYEDGFGDELIAAAKDATLLANASNMAWYGKSNAMYQHLQQSQARAMELGRYMVRATNTGATAIISPKGNIIAQAQPDTETVLEGHIKGYVGETPYMKTG | not soluble |
| MKRYISIKGIGTYLPKRKVDSLEIDQMLDVPEGWTLKKAGVKTRYFVDGETSSYMGAEAAKKAVEDAKLTWDDIDCIICGSGTIQQAIPSTASLIQEQLGLQHSGIPCFDINSTCLSFITALDTISYAIECGRYKNVVIISSEISSVGLNWGQNESSILFGDGAAAVVITKGDHSSSIIASHMETYSSGAHLSEIRGGGTMIHPREYSEERKEDFLFDMNGRAIFKLSSKYLMKFIDKLLMDTGYSLADIDLIVPHQASGPAMRLIRKKLGVDEERFMTIFEDYGNMISASIPVALFEAIKQKKVQRGNKILLLGTSAGLSIGGILLEY | not soluble |
| MSLSSSCIEEVSVPDDNWYRIANELLSRADITINGSAPSDIRVKNPDFFKRVLQEGSLGLGESYMDGWWECERLDIFFSKVLRAGLENQLPHHVKDTLRILGARLINLQSKKRAWIVGKEHYDLGNDLFSRMLDPYMQYSCAYWKDADTLEAAQQAKLKLICEKLQLQPGMRVLDIGCGWGGLSQYMATHYGVSVVGVTISAEQQKMAQTRCEGLDVSILLEDYRDLNDQFDRIVSVGMFEHVGPKNYNTYFEVVDRNLKPDGLFLLHTIGSKKTDHNVDPWINKYIFPNGCLPSVRQIAEASESHFVMEDWHNFGADYDTTLMAWHERFINAWPEIAGNYNERFKRMFSYYLNACAGAFRARDIQLWQVVFTRGVENGLRVPREGHHHHHH | soluble |
